Assay results published in the supplement of paper PMC10567573.

B1: NET1 (parent)
chain: IKRTIRVLDVNNQSFREQEEPSNK
B2: ADD1 (parent)
chain: LRHSFQKQQREKTRWLNSGRGDEA

Variants of: B1
Assay: protein stability index of a GFP-peptide fusion (GPS, HEK-293T) (PSI 1-6); higher = more stable
Settings: c terminus: a fixed tail appended
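Also: lentivirally expressed fusions sorted by FACS into six bins by GFP to DsRed ratio, PSI derived from sequencing read proportions per bin multiplied by bin number.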

Variant	protein stability index
IKRTIRVLDVNNQSFDEQEEPSNK [R16D]	4.47
IKRTIRVLDVNNQSFCEQEEPSNK [R16C]	3.3
IKRTIRVLDVNNQSFWEQEEPSNK [R16W]	2.07
IKRTIRVLDVNNQSFREQAEPSNK [E19A]	2.57
IKRTIRVLDVNNYSFREQEEPSNK [Q13Y]	2.04
IKRTIRVLDVNNTSFREQEEPSNK [Q13T]	3.37
IKRTIRVLDVNNQRFREQEEPSNK [S14R]	3.78
IKRTIRVLDVNNQEFREQEEPSNK [S14E]	3.79
IKRTIRVLDVNNQSFREPEEPSNK [Q18P]	3.49
IKRTIRVLDVNNQSFREFEEPSNK [Q18F]	2.52
IKRTIRVLDVCNQSFREQEEPSNK [N11C]	3.09
IKRTIRVLDVANQSFREQEEPSNK [N11A]	4.48
IKRTIRVLDVPNQSFREQEEPSNK [N11P]	4.16
IKRTIRVLDVWNQSFREQEEPSNK [N11W]	2.65
IKRTIRVLDVNNQSFREQERPSNK [E20R]	2.93
IKRTIRQLDVNNQSFREQEEPSNK [V7Q]	5.07
IKRTYRVLDVNNQSFREQEEPSNK [I5Y]	3.95
IKRTPRVLDVNNQSFREQEEPSNK [I5P]	3.78

Variant	protein stability index
IKCTIRVLDVNNQSFREQEEPSNK [R3C]	2.69
IKDTIRVLDVNNQSFREQEEPSNK [R3D]	4.81
IKRTIRVADVNNQSFREQEEPSNK [L8A]	4.45
IKRTIRVTDVNNQSFREQEEPSNK [L8T]	4.72
IKRTIRVLDVNNQSHREQEEPSNK [F15H]	4.44
PKRTIRVLDVNNQSFREQEEPSNK [I1P]	3.94
IKRTIRVLDVNWQSFREQEEPSNK [N12W]	2.63
IKRTIRVLDVNNQSFREQEEPSNG [K24G]	3.83
IMRTIRVLDVNNQSFREQEEPSNK [K2M]	3.75
IERTIRVLDVNNQSFREQEEPSNK [K2E]	4.01
IKRNIRVLDVNNQSFREQEEPSNK [T4N]	4.13
IKRFIRVLDVNNQSFREQEEPSNK [T4F]	2.88
IKRDIRVLDVNNQSFREQEEPSNK [T4D]	4.51
IKRTIRVLDVNNQSFREQEEISNK [P21I]	2.57
IKRTIRVLDVNNQSFREQEEPSAK [N23A]	2.99
IKRTIRVLDVNNQSFRWQEEPSNK [E17W]	1.74
IKRTIRVLDYNNQSFREQEEPSNK [V10Y]	4.06

Variants of: B2
Assay: as above
Settings: c terminus: a fixed tail appended

Variant	protein stability index
HRHSFQKQQREKTRWLNSGRGDEA [L1H]	3.92
ARHSFQKQQREKTRWLNSGRGDEA [L1A]	4.57
MRHSFQKQQREKTRWLNSGRGDEA [L1M]	3.65
WRHSFQKQQREKTRWLNSGRGDEA [L1W]	2.92
NRHSFQKQQREKTRWLNSGRGDEA [L1N]	4.11
FRHSFQKQQREKTRWLNSGRGDEA [L1F]	3.8
ERHSFQKQQREKTRWLNSGRGDEA [L1E]	4.34
QRHSFQKQQREKTRWLNSGRGDEA [L1Q]	3.78
CRHSFQKQQREKTRWLNSGRGDEA [L1C]	3.23
YRHSFQKQQREKTRWLNSGRGDEA [L1Y]	3.75
TRHSFQKQQREKTRWLNSGRGDEA [L1T]	4.32
VRHSFQKQQREKTRWLNSGRGDEA [L1V]	3.71
DRHSFQKQQREKTRWLNSGRGDEA [L1D]	3.7
GRHSFQKQQREKTRWLNSGRGDEA [L1G]	4.21
IRHSFQKQQREKTRWLNSGRGDEA [L1I]	3.92
PRHSFQKQQREKTRWLNSGRGDEA [L1P]	4.04
SRHSFQKQQREKTRWLNSGRGDEA [L1S]	4.35
KRHSFQKQQREKTRWLNSGRGDEA [L1K]	3.62
RRHSFQKQQREKTRWLNSGRGDEA [L1R]	4.42
LGHSFQKQQREKTRWLNSGRGDEA [R2G]	3.97
LKHSFQKQQREKTRWLNSGRGDEA [R2K]	3.71
LEHSFQKQQREKTRWLNSGRGDEA [R2E]	4.42
LQHSFQKQQREKTRWLNSGRGDEA [R2Q]	3.94
LTHSFQKQQREKTRWLNSGRGDEA [R2T]	4.05
LLHSFQKQQREKTRWLNSGRGDEA [R2L]	3
LSHSFQKQQREKTRWLNSGRGDEA [R2S]	3.6

Variant	protein stability index
LHHSFQKQQREKTRWLNSGRGDEA [R2H]	4.03
LPHSFQKQQREKTRWLNSGRGDEA [R2P]	4.33
LCHSFQKQQREKTRWLNSGRGDEA [R2C]	3.58
LWHSFQKQQREKTRWLNSGRGDEA [R2W]	2.92
LYHSFQKQQREKTRWLNSGRGDEA [R2Y]	3.26
LIHSFQKQQREKTRWLNSGRGDEA [R2I]	3.06
LNHSFQKQQREKTRWLNSGRGDEA [R2N]	4.3
LVHSFQKQQREKTRWLNSGRGDEA [R2V]	3.11
LAHSFQKQQREKTRWLNSGRGDEA [R2A]	4.17
LFHSFQKQQREKTRWLNSGRGDEA [R2F]	2.99
LDHSFQKQQREKTRWLNSGRGDEA [R2D]	5.03
LMHSFQKQQREKTRWLNSGRGDEA [R2M]	3.85
LRASFQKQQREKTRWLNSGRGDEA [H3A]	3.67
LRISFQKQQREKTRWLNSGRGDEA [H3I]	3.16
LRVSFQKQQREKTRWLNSGRGDEA [H3V]	3.32
LRDSFQKQQREKTRWLNSGRGDEA [H3D]	4.53
LRYSFQKQQREKTRWLNSGRGDEA [H3Y]	3.48
LRPSFQKQQREKTRWLNSGRGDEA [H3P]	3.77
LRLSFQKQQREKTRWLNSGRGDEA [H3L]	3.54
LRSSFQKQQREKTRWLNSGRGDEA [H3S]	4.03
LRQSFQKQQREKTRWLNSGRGDEA [H3Q]	3.67
LRWSFQKQQREKTRWLNSGRGDEA [H3W]	2.28
LRKSFQKQQREKTRWLNSGRGDEA [H3K]	3.75
LRTSFQKQQREKTRWLNSGRGDEA [H3T]	3.94
LRMSFQKQQREKTRWLNSGRGDEA [H3M]	3.29
LRNSFQKQQREKTRWLNSGRGDEA [H3N]	3.65

Variant	protein stability index
LRCSFQKQQREKTRWLNSGRGDEA [H3C]	2.31
LRFSFQKQQREKTRWLNSGRGDEA [H3F]	3.14
LRRSFQKQQREKTRWLNSGRGDEA [H3R]	3.61
LRESFQKQQREKTRWLNSGRGDEA [H3E]	3.98
LRGSFQKQQREKTRWLNSGRGDEA [H3G]	3.93
LRHSFQSQQREKTRWLNSGRGDEA [K7S]	4.24
LRHSFQNQQREKTRWLNSGRGDEA [K7N]	4.21
LRHSFQTQQREKTRWLNSGRGDEA [K7T]	3.67
LRHSFQIQQREKTRWLNSGRGDEA [K7I]	3.1
LRHSFQPQQREKTRWLNSGRGDEA [K7P]	3.86
LRHSFQMQQREKTRWLNSGRGDEA [K7M]	3.22
LRHSFQHQQREKTRWLNSGRGDEA [K7H]	3.53
LRHSFQAQQREKTRWLNSGRGDEA [K7A]	3.95
LRHSFQEQQREKTRWLNSGRGDEA [K7E]	4.33
LRHSFQQQQREKTRWLNSGRGDEA [K7Q]	4.27
LRHSFQRQQREKTRWLNSGRGDEA [K7R]	3.01
LRHSFQLQQREKTRWLNSGRGDEA [K7L]	3.89
LRHSFQCQQREKTRWLNSGRGDEA [K7C]	1.8
LRHSFQGQQREKTRWLNSGRGDEA [K7G]	4.57
LRHSFQWQQREKTRWLNSGRGDEA [K7W]	3.08
LRHSFQYQQREKTRWLNSGRGDEA [K7Y]	3.51
LRHSFQDQQREKTRWLNSGRGDEA [K7D]	3.87
LRHSFQVQQREKTRWLNSGRGDEA [K7V]	3.38
LRHSFQFQQREKTRWLNSGRGDEA [K7F]	3.63
LRHSRQKQQREKTRWLNSGRGDEA [F5R]	3.43
LRHSTQKQQREKTRWLNSGRGDEA [F5T]	4.11

Variant	protein stability index
LRHSVQKQQREKTRWLNSGRGDEA [F5V]	4.17
LRHSQQKQQREKTRWLNSGRGDEA [F5Q]	4.19
LRHSLQKQQREKTRWLNSGRGDEA [F5L]	3.83
LRHSAQKQQREKTRWLNSGRGDEA [F5A]	4.44
LRHSEQKQQREKTRWLNSGRGDEA [F5E]	4.71
LRHSDQKQQREKTRWLNSGRGDEA [F5D]	4.37
LRHSGQKQQREKTRWLNSGRGDEA [F5G]	4.16
LRHSCQKQQREKTRWLNSGRGDEA [F5C]	2.21
LRHSMQKQQREKTRWLNSGRGDEA [F5M]	3.8
LRHSIQKQQREKTRWLNSGRGDEA [F5I]	3.74
LRHSWQKQQREKTRWLNSGRGDEA [F5W]	3.44
LRHSHQKQQREKTRWLNSGRGDEA [F5H]	4.24
LRHSPQKQQREKTRWLNSGRGDEA [F5P]	4.4
LRHSNQKQQREKTRWLNSGRGDEA [F5N]	4.37
LRHSYQKQQREKTRWLNSGRGDEA [F5Y]	3.71
LRHSSQKQQREKTRWLNSGRGDEA [F5S]	4.17
LRHSKQKQQREKTRWLNSGRGDEA [F5K]	3.7
LRHGFQKQQREKTRWLNSGRGDEA [S4G]	3.45
LRHFFQKQQREKTRWLNSGRGDEA [S4F]	2.92
LRHWFQKQQREKTRWLNSGRGDEA [S4W]	3.04
LRHDFQKQQREKTRWLNSGRGDEA [S4D]	3.88
LRHRFQKQQREKTRWLNSGRGDEA [S4R]	3.21
LRHEFQKQQREKTRWLNSGRGDEA [S4E]	3.86
LRHAFQKQQREKTRWLNSGRGDEA [S4A]	3.59
LRHHFQKQQREKTRWLNSGRGDEA [S4H]	2.74
LRHCFQKQQREKTRWLNSGRGDEA [S4C]	3.01

Variant	protein stability index
LRHKFQKQQREKTRWLNSGRGDEA [S4K]	3
LRHNFQKQQREKTRWLNSGRGDEA [S4N]	4.03
LRHLFQKQQREKTRWLNSGRGDEA [S4L]	2.26
LRHQFQKQQREKTRWLNSGRGDEA [S4Q]	3.72
LRHVFQKQQREKTRWLNSGRGDEA [S4V]	3.15
LRHMFQKQQREKTRWLNSGRGDEA [S4M]	2.84
LRHIFQKQQREKTRWLNSGRGDEA [S4I]	2.82
LRHTFQKQQREKTRWLNSGRGDEA [S4T]	3.57
LRHPFQKQQREKTRWLNSGRGDEA [S4P]	3.3
LRHYFQKQQREKTRWLNSGRGDEA [S4Y]	2.45
LRHSFQKLQREKTRWLNSGRGDEA [Q8L]	3.05
LRHSFQKEQREKTRWLNSGRGDEA [Q8E]	3.83
LRHSFQKSQREKTRWLNSGRGDEA [Q8S]	3.63
LRHSFQKTQREKTRWLNSGRGDEA [Q8T]	3.93
LRHSFQKWQREKTRWLNSGRGDEA [Q8W]	2.08
LRHSFQKPQREKTRWLNSGRGDEA [Q8P]	4.13
LRHSFQKFQREKTRWLNSGRGDEA [Q8F]	2.73
LRHSFQKVQREKTRWLNSGRGDEA [Q8V]	3.48
LRHSFQKDQREKTRWLNSGRGDEA [Q8D]	3.87
LRHSFQKKQREKTRWLNSGRGDEA [Q8K]	3.35
LRHSFQKNQREKTRWLNSGRGDEA [Q8N]	3.15
LRHSFQKCQREKTRWLNSGRGDEA [Q8C]	2.62
LRHSFQKGQREKTRWLNSGRGDEA [Q8G]	3.52
LRHSFQKYQREKTRWLNSGRGDEA [Q8Y]	2.71
LRHSFQKRQREKTRWLNSGRGDEA [Q8R]	3.48
LRHSFQKMQREKTRWLNSGRGDEA [Q8M]	3.32

Variant	protein stability index
LRHSFQKHQREKTRWLNSGRGDEA [Q8H]	3.41
LRHSFQKIQREKTRWLNSGRGDEA [Q8I]	3.64
LRHSFQKAQREKTRWLNSGRGDEA [Q8A]	4
LRHSFWKQQREKTRWLNSGRGDEA [Q6W]	2.53
LRHSFIKQQREKTRWLNSGRGDEA [Q6I]	3.25
LRHSFLKQQREKTRWLNSGRGDEA [Q6L]	3.54
LRHSFSKQQREKTRWLNSGRGDEA [Q6S]	3.18
LRHSFRKQQREKTRWLNSGRGDEA [Q6R]	3.7
LRHSFAKQQREKTRWLNSGRGDEA [Q6A]	3.78
LRHSFFKQQREKTRWLNSGRGDEA [Q6F]	3.21
LRHSFYKQQREKTRWLNSGRGDEA [Q6Y]	2.85
LRHSFDKQQREKTRWLNSGRGDEA [Q6D]	4.37
LRHSFPKQQREKTRWLNSGRGDEA [Q6P]	4.11
LRHSFGKQQREKTRWLNSGRGDEA [Q6G]	3.11
LRHSFVKQQREKTRWLNSGRGDEA [Q6V]	3.56
LRHSFNKQQREKTRWLNSGRGDEA [Q6N]	3.87
LRHSFKKQQREKTRWLNSGRGDEA [Q6K]	3.99
LRHSFTKQQREKTRWLNSGRGDEA [Q6T]	3.7
LRHSFEKQQREKTRWLNSGRGDEA [Q6E]	4.14
LRHSFCKQQREKTRWLNSGRGDEA [Q6C]	2.27
LRHSFHKQQREKTRWLNSGRGDEA [Q6H]	3.69
LRHSFMKQQREKTRWLNSGRGDEA [Q6M]	3.49
LRHSFQKQAREKTRWLNSGRGDEA [Q9A]	4.12
